Paper PMC3511314, “Functional Characterization of Two M42 Aminopeptidases Erroneously Annotated as Cellulases” (PLoS ONE, 2012)

B1: TmPep1050 protein of Thermotoga maritima (TM1050 ORF) (enzyme, UniProt Q9X0E0 1-331, looked up)
chain: MKELIRKLTEAFGPSGREEEVRSIILEELEGHIDGHRIDGLGNLIVWKGSGEKKVILDAHIDEIGVVVTNVDDKGFLTIEPVGGVSPYMLLGKRIRFENGTIGVVGMEGETTEERQENVRKLSFDKLFIDIGANSREEAQKMCPIGSFGVYDSGFVEVSGKYVSKAMDDRIGCAVIVEVFKRIKPAVTLYGVFSVQEEVGLVGASVAGYGVPADEAIAIDVTDSADTPKAIKRHAMRLSGGPALKVKDRASISSKRILENLIEIAEKFDIKYQMEVLTFGGTNAMGYQRTREGIPSATVSIPTRYVHSPSEMIAPDDVEATVDLLIRYLGA
notes: TmPep1050, M42 aminopeptidase of Thermotoga maritima, product of the TM1050 ORF carried by the JCSG plasmid TmCD00089984; predicted molecular weight of the monomer 37.5 kDa; the tag of the JCSG construct is not described; also called 3ISX; source: E. coli MC1061, plasmid TmCD00089984, purified (heat step 60°C, Ni-NTA IMAC, Superdex 200)
B2: YpdE, M42 aminopeptidase of E. coli (enzyme, UniProt P77585 1-345, looked up)
chain: MDLSLLKALSEADAIASSEQEVRQILLEEADRLQKEVRFDGLGSVLIRLNESTGPKVMICAHMDEVGFMVRSISREGAIDVLPVGNVRMAARQLQPVRITTREECKIPGLLDGDRQGNDVSAMRVDIGARSYDEVMQAGIRPGDRVTFDTTFQVLPHQRVMGKAFDDRLGCYLLVTLLRELHDAELPAEVWLVASSSEEVGLRGGQTATRAVSPDVAIVLDTACWAKNFDYGAANHRQIGNGPMLVLSDKSLIAPPKLTAWVETVAAEIGVPLQADMFSNGGTDGGAVHLTGTGVPTVVMGPATRHGHCAASIADCRDILQMQQLLSALIQRLTRETVVQLTDFR
notes: YpdE, one of three M42 aminopeptidases of E. coli; Only named in the discussion as unpublished data; the construct is not described; copies: 12

Tests used:
[1] = target: the molecule itself; test: SEC; gel filtration on Superdex 200 (16/70 column), final step of the purification, 50 mM Tris, 300 mM NaCl pH 7.3; for CelM all buffers with 1 mM glutathione; oligomer size from the apparent mass at elution
[2] = target: the molecule itself; test: not stated; unpublished data; oligomeric state of YpdE, method not given

Row | Protein | stoichiometry N [1] | stoichiometry N [2]
1 | B1 | 2 | 
2 | B2 |  | 12
